Source: EP4803151A2 (Lepu Biopharma Co., Ltd., dated 2026)
Positions count from the first letter of the chain named.

T1: ECD of human DLL3 protein fused with his tag (Acro Bio, Cat. No. DL3-H52H4) (human, UniProt Q9NYJ7 27-492)
T1 construct: range 27-492; Bought protein; also called hDLL3-his; human DLL3-his protein; not shown: his tag
T1 sequence (looked up): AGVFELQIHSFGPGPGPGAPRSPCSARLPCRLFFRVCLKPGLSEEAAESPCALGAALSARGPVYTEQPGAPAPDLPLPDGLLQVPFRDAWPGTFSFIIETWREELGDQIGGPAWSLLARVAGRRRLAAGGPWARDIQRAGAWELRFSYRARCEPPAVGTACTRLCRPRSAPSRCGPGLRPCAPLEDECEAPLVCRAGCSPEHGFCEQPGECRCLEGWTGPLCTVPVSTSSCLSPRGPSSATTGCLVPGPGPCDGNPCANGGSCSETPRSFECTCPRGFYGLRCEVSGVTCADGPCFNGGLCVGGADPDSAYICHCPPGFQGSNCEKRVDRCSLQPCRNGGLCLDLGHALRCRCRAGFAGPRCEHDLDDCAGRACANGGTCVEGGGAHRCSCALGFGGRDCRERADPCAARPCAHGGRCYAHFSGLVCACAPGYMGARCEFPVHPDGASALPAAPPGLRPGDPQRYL

B1: 310P3C5-z7 humanized antibody (antibody, human IgG1, kappa, V domains shown)
VH: QVQLVQSGAEVKKPGASVKVSCKASGYTFTDFYMNWVRQAPGQGLEWIGDANPNNGGTTHNPRFKGRATLTVDTSTSTAYMELRSLRSDDTAVYYCARGGLPGDFDYWGQGTTVTVSS
VL: DIQMTQSPSSVSASVGDRVTITCKASEDIYNRLAWYQQKPGKAPKLLISGVTSLETGVPSRFSGSGSGTDFTLTISSLQPEDFATYYCQQYWSFPWTFGGGTKVEIKR
notes: HU-VH1-3 with HU-VL1-2; human IgG1
B2: 310P3C5-z13 humanized antibody (antibody, human IgG1, kappa, V domains shown)
VH: B1 VH with I48M, A68V, L70M, V72T
VL: B1 VL with V11L, L73F, F83I
notes: HU-VH1-1 with HU-VL2; human IgG1
B3: 310P3C5-z3 humanized antibody (antibody, human IgG1, kappa, V domains shown)
VH: B1 VH
VL: B1 VL with S49Y
notes: HU-VH1-3 with HU-VL1-1; human IgG1
B4: 310P3C5-z2 humanized antibody (antibody, human IgG1, kappa, V domains shown)
VH: B1 VH with L70M, V72T
VL: B1 VL with S49Y
notes: HU-VH1-2 with HU-VL1-1; human IgG1
B5: 310P3C5-z1 humanized antibody (antibody, human IgG1, kappa, V domains shown)
VH: B1 VH with I48M, A68V, L70M, V72T
VL: B1 VL with S49Y
notes: HU-VH1-1 with HU-VL1-1; human IgG1
B6: 310P3C5-z6 humanized antibody (antibody, human IgG1, kappa, V domains shown)
VH: B1 VH with L70M, V72T
VL: B1 VL
notes: HU-VH1-2 with HU-VL1-2; human IgG1
B7: 310P3C5-z10 humanized antibody (antibody, human IgG1, kappa, V domains shown)
VH: B1 VH with L70M, V72T
VL: B1 VL with T69K
notes: HU-VH1-2 with HU-VL1-3; human IgG1
B8: 310P3C5-z5 humanized antibody (antibody, human IgG1, kappa, V domains shown)
VH: B1 VH with I48M, A68V, L70M, V72T
VL: B1 VL
notes: HU-VH1-1 with HU-VL1-2; human IgG1
B9: 310P3C5-z9 humanized antibody (antibody, human IgG1, kappa, V domains shown)
VH: B1 VH with I48M, A68V, L70M, V72T
VL: B1 VL with T69K
notes: HU-VH1-1 with HU-VL1-3; human IgG1
B10: 310P3C5-z11 humanized antibody (antibody, human IgG1, kappa, V domains shown)
VH: B1 VH
VL: B1 VL with T69K
notes: HU-VH1-3 with HU-VL1-3; human IgG1

Each binder was assayed against T1, ECD of human DLL3 protein fused with … (assay: ELISA, hDLL3-his coated).

Binding result, binds:
B1
B2
B3
B4
B5
B6
B7
B8
B9
B10
